Assay results as given in patent US20130156779A1 (GlaxoSmithKline, published 2013).
Read-outs that look alike come from different tables or passages of the source.

B1: Humanized 1D9 POTELLIGENT™ antibody (antibody, human IgG1, kappa)
heavy: not shown
light: DIQMTQSPSSLSASVGDRVTITCRSSQSIVHSSGNTYLQWFQQKPGKAPKLLIYKVSNRFSGVPSRFSGSGSGTDFTLTISSLQPEDFAVYYCFQGSHVPWTFGQGTKLEIKRTVAAPSVFIFPPSDEQLKSGTASVVCLLNNFYPREAKVQWKVDNALQSGNSQESVTEQDSKDSTYSLSSTLTLSKADYEKHKVYACEVTHQGLSSPVTKSFNRGEC
modifications: non-fucosylated glycans on the marked N* residue
notes: Same chains as the humanized 1D9 antibody, expressed in FUT8- cells; also called humanized 1D9 H6L2 POTELLIGENT antibody
B2: Humanized 1D9 antibody (antibody, human IgG1, kappa)
heavy: not shown
light: DIQMTQSPSSLSASVGDRVTITCRSSQSIVHSSGNTYLQWFQQKPGKAPKLLIYKVSNRFSGVPSRFSGSGSGTDFTLTISSLQPEDFAVYYCFQGSHVPWTFGQGTKLEIKRTVAAPSVFIFPPSDEQLKSGTASVVCLLNNFYPREAKVQWKVDNALQSGNSQESVTEQDSKDSTYSLSSTLTLSKADYEKHKVYACEVTHQGLSSPVTKSFNRGEC
notes: Expressed in FUT8+ cells; also called HZ1D9; H6L2
B3: Humanized 1D9 …B™ antibody (antibody, human IgG1, kappa)
heavy: QVQLVQSGAEVKKPGASVKVSCKASGYTFTSYWMHWVRQAPGQGLEWMGVIDPSDGYSHYNQKFKGKVTLTVDTSISTAYMELSRLRSDDTAVYYCAGGLAGTLDYWGQGTTVTVSSASTKGPSVFPLAPSSKSTSGGTAALGCLVKDYFPEPVTVSWNSGALTSGVHTFPAVLQSSGLYSLSSVVTVPSSSLGTQTYICNVNHKPSNTKVDKKVEPKSCDKTHTCPPCPAPELLGGPSVFLFPPKPKDTLMISRTPEVTCVVVDVSHEDPEVQFKWYVDGVEVHNAKTKPREEQFNSTFRVVSVLTVLHQDWLNGKEYKCKVSNKALPAPIEKTISKTKGQPREPQVYTLPPSREEMTKNQVSLTCLVKGFYPSDIAVEWESSGQPENNYKTTPPMLDSDGSFFLYSKLTVDKSRWQQGNIFSCSVMHEALHNHYTQKSLSLSPGK
light: DIQMTQSPSSLSASVGDRVTITCRSSQSIVHSSGNTYLQWFQQKPGKAPKLLIYKVSNRFSGVPSRFSGSGSGTDFTLTISSLQPEDFAVYYCFQGSHVPWTFGQGTKLEIKRTVAAPSVFIFPPSDEQLKSGTASVVCLLNNFYPREAKVQWKVDNALQSGNSQESVTEQDSKDSTYSLSSTLTLSKADYEKHKVYACEVTHQGLSSPVTKSFNRGEC
modifications: non-fucosylated glycans on the marked N* residue
notes: Chimeric IgG1/IgG3 Fc, expressed in FUT8- cells; also called humanized …B 1D9 antibody; humanized 1D9 H6L2 …B antibody
B4: Murine 1D9 antibody (M5.1D9.1F5) (antibody, IgG2b, V domains shown)
VH: QVQLQQPGAELVRPGTSVKLSCKASGYTFTSYWMHWVKQRPGQGLEWIGVIDPSDGYSHYNQKFKGKATLTVDTSSSTAYMQLSSLTSEDSAVYYCAGGLAGTLDYWGQGTTLTVSS
VL: DVLMTQTPLSLPVSLGDQASISCRSSQSIVHSSGNTYLQWFLQKPGQSPKLLISKVSNRFSGVPDRFSGSGSGTDFTLRISRVEAEDLGLYYCFQGSHVPWTFGGGTKLEIK
notes: Mouse monoclonal, IgG2b; also called m1D9

How the values were obtained:
[1] = molecular target: T1, Full-length human HER3 extracellular domain (ECD) (human, UniProt P21860 20-643); assay: DELFIA (europium time-resolved fluorescence), plate coated with HER3 ECD Full Length 1ug/ml, antibody titrated 0.001-10 ug/ml
T1 construct: also called human HER3 ECD; HER-3 ECD full length
T1 sequence (P21860 20-643): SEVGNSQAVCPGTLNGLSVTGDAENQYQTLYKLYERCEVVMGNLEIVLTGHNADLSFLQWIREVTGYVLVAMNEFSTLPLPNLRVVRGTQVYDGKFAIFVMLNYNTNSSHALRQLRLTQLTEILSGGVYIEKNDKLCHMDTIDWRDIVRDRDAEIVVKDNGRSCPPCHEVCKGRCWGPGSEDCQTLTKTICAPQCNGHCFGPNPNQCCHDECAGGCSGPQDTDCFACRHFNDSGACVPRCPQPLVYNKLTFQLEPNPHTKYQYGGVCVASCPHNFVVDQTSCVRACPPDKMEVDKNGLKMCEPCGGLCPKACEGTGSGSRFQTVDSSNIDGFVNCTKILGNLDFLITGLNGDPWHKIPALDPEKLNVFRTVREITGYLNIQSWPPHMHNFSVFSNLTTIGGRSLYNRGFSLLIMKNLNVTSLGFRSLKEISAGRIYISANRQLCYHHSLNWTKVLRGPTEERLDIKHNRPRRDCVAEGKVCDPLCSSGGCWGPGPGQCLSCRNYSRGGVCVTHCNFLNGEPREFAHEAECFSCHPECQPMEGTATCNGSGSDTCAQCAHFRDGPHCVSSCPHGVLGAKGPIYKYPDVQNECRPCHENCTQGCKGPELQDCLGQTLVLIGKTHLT
Protocol: (§1) Dissociation Enhanced Lanthanide Fluorescence Immunoassay (DELFIA) for detection of the anti-HER3 antibodies to HER3 extracellular domain (ECD) was used. The DELFIA procedures were as follows: white Maxisorp 96-well plates (Nunc #437796) were coated with 100 ul/well of 1 ug/ml HER-3 ECD full length or HER3Domain I, II, III and IV in 0.1M carbonate buffer pH 9.5 overnight at 4° C. These plates were blocked with casein in TBS (Thermo Scientific #37532 lot#JD121074). The neat hybridoma supernatant, or the purified anti-HER3 antibodies diluted in Perkin Elmer #4002-0010 Assay Buffer from 10 ug/ml (or 100 ug/ml) to 0.01 ug/ml, or the PK serum samples with a minimum of 3 dilutions (100 ul/well) were added to the plate. These samples were incubated for 2 hours at room temperature while on a plate shaker or overnight at 4° C. […] The plate was washed 4 times with tris-buffer plus 0.05% tween-20 (Perkin Elmer #4010-0010) on a BIOTEK™ plate washer following each antibody incubation step. 100 ul/well of DELFIA enhancement solution (Perkin Elmer 1244-105) was added for 5 minutes at room temperature. […] Antibody binding was recorded as europium counts per well.

Human HER3 receptor [2] = molecular target: T2, Human HER3 receptor (human, UniProt P21860 20-1342); assay: cell-based or functional assay
T2 sequence (P21860 20-1342 limits assumed): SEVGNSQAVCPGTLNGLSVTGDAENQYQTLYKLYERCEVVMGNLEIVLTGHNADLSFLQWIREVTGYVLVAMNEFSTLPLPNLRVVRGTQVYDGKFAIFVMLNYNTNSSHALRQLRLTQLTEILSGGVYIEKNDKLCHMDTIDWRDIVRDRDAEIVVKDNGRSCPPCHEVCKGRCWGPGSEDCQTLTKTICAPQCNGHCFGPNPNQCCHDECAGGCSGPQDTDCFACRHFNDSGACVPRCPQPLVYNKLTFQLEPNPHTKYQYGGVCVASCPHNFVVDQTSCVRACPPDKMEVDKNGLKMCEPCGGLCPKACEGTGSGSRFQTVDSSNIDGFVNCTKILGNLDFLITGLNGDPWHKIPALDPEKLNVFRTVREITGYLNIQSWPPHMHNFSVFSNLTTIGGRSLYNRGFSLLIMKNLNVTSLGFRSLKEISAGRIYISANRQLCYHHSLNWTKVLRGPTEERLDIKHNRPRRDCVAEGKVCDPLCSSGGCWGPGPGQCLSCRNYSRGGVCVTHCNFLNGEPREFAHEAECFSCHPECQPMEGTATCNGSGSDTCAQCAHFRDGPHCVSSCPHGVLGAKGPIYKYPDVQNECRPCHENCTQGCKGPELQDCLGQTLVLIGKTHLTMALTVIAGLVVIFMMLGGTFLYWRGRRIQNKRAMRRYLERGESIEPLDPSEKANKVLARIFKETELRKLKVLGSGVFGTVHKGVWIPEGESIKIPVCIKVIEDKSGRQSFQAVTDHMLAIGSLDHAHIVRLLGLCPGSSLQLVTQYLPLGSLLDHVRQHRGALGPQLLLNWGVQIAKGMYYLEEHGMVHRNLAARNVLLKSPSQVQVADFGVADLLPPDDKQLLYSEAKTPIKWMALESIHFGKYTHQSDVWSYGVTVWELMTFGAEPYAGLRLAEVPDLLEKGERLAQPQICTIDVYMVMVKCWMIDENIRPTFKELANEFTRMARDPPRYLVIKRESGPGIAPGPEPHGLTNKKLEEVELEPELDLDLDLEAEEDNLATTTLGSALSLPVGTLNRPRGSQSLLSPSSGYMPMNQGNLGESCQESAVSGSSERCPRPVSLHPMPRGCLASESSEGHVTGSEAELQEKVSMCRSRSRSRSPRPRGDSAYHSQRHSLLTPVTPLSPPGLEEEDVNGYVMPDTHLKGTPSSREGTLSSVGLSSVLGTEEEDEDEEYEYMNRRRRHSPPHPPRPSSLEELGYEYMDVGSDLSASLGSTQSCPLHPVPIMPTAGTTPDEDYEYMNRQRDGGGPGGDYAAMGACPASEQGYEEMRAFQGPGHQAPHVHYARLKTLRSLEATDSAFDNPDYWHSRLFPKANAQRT

Human HER3 receptor [3] = molecular target: T2, Human HER3 receptor; assay: cell-based or functional assay; remark: listed apart in the source
Human HER3 ECD domain II [4] = molecular target: T3, Human HER3 ECD domain II (human, UniProt P21860 184-329); assay: DELFIA, plate coated with HER3 Domain II 1ug/ml
T3 construct: also called D2; Domain 2
T3 sequence (P21860 184-329): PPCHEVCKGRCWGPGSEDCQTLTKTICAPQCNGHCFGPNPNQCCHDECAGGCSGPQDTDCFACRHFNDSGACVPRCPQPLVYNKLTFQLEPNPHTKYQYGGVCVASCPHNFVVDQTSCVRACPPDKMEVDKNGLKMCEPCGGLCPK
Protocol: as §1

[5] = molecular target: T4, Full-length rat HER3 extracellular domain (ECD) (rat, UniProt Q62799 20-643); assay: BIACORE SPR, mAb captured on protein A, ECD as analyte, 25 C
T4 construct: extracellular domain; also called Rat HER3 ECD
T4 sequence (Q62799 20-643): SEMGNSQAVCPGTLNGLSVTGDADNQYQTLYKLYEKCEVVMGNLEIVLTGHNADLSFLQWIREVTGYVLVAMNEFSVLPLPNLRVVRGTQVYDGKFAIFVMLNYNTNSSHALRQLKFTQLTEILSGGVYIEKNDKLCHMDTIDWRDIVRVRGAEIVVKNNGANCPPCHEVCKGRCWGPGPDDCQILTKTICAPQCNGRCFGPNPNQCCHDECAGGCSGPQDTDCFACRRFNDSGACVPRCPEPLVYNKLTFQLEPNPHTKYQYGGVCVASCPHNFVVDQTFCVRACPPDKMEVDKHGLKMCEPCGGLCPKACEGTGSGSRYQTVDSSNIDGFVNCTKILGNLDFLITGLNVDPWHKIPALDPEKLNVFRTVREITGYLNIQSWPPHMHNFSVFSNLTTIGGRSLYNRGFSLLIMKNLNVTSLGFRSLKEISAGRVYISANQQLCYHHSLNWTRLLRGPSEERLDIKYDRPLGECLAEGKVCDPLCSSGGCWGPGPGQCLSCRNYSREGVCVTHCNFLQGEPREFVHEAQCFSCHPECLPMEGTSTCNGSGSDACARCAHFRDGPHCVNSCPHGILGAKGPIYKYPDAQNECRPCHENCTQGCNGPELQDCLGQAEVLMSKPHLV
Protocol: (§2) Protein A was immobilised on a CM5 chip by primary amine coupling to a level of ˜1300 resonance units (RU′s), humanized antibodies were then captured on this chip, All antibodies were captured to a similar level (100-200 RU's). […] Alternatively, the full-length, rat HER3 ECD or the full-length cynomolgus monkey ECD were passed over the chip at 10 nM, 5 nM, 2.5 nM, 1:25nM, 0.625 nM and 0.3125nM. An injection of buffer alone was used to double reference the binding curves as indicated in Example 1. Regeneration of this surface was achieved using 10 mM Glycine buffer pH 1.5. The binding data was fitted to the 1:1 model using BIACORE™ Evaluation software. Runs were carried out at 25° C. on a BIACORE™ T3000 using HBS-EP as running buffer.

[6] = molecular target: T1, Full-length human HER3 extracellular …; assay: as above
Protocol: as §2

[7] = molecular target: T1, Full-length human HER3 extracellular …; assay: DELFIA (europium time-resolved fluorescence), plate coated with HER3 ECD Full Length 1ug/ml, antibody titrated 0.001-10 ug/ml; remark: listed apart in the source
Human HER3 ECD domain II [8] = molecular target: T3, Human HER3 ECD domain II; assay: DELFIA, plate coated with HER3 Domain II 1ug/ml; remark: listed apart in the source
Human HER3 receptor [9] = molecular target: T2, Human HER3 receptor; assay: cell-based or functional assay; remark: listed apart in the source
Human HER3 receptor [10] = molecular target: T2, Human HER3 receptor; assay: cell-based or functional assay; remark: listed apart in the source
[11] = molecular target: T5, Human HER3 ECD domain III (human, UniProt P21860 330-495); assay: affinity summary table, method not given
T5 construct: also called D3; Domain 3
T5 sequence (P21860 330-495): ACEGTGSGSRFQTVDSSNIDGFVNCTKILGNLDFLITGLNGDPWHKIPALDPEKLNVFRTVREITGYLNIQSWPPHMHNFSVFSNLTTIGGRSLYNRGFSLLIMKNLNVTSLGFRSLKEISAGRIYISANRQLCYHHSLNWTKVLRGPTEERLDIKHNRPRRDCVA

[12] = molecular target: T1, Full-length human HER3 extracellular …; assay: affinity summary table, method not given
[13] = molecular target: T6, Murine HER3 on B16 and B16F10 melanoma cells (murine, UniProt Q61526 20-1339); assay: flow cytometry on B16F10 murine melanoma cells, antibody labelled with a Zenon APC kit [a]
T6 construct: whole, on cells
T6 sequence (Q61526 20-1339, one chain of several): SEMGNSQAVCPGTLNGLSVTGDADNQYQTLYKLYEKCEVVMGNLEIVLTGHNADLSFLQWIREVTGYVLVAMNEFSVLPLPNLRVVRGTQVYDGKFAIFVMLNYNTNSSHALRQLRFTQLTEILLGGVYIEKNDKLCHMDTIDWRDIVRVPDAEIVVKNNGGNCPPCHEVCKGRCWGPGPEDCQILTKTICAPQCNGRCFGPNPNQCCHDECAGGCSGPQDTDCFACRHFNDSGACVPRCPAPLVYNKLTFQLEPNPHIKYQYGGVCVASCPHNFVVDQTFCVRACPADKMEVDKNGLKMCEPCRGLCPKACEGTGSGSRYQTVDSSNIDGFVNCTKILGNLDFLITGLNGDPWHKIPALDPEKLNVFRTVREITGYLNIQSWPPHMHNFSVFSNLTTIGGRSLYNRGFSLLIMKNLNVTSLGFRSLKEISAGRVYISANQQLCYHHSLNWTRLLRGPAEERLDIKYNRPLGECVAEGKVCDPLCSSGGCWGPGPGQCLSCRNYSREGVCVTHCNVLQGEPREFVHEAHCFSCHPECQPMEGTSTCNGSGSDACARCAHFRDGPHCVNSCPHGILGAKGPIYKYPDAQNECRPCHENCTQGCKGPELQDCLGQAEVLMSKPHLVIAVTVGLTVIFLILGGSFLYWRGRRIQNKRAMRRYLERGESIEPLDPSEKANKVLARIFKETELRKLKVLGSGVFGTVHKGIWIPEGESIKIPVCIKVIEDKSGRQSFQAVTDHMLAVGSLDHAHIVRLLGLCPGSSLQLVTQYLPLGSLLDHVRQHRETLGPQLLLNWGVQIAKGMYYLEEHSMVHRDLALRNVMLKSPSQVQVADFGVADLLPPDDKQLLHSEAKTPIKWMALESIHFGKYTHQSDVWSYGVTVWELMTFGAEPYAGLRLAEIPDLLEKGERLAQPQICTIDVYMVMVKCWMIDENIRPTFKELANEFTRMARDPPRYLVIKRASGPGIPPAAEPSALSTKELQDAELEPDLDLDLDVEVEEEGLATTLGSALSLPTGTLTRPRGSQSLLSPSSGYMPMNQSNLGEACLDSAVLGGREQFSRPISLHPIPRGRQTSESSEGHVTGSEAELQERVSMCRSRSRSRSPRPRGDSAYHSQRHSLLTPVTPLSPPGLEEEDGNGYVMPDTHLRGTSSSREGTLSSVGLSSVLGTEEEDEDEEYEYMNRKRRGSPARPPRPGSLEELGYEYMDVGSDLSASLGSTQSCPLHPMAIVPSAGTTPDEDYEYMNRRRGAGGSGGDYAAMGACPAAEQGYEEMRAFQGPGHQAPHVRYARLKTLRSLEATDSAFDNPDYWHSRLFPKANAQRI
Excerpt: B16F10 ZENON™ labeling kits: [0530] Mouse IgG1 PE—Invitrogen Z25021 [0531] Mouse IgG1 APC—Invitrogen Z25051 [0532] Mouse IgG2b APC—Invitrogen Z25151 Method: Commercially available anti-human EGFR and HER2 antibodies were provided. A commercially available HER3 antibody represented by the provider to recognizes human HER3 was provided. The murine 15D5 antibody, murine 1D9 antibody (M5.1D9.1F5), murine 24H5 antibody (M5.24H5.C2) antibodies were also provided. These antibodies were labeled with either PE or APC using the ZENON™ labeling kits (Invitrogen). 5×10⁶ B 16, or B16F10, murine melanoma cells were added to flow cytometry tubes containing the labeled anti-HER3 antibodies. Cells and antibodies were incubated for 30 minutes on ice in the dark, washed and resuspended in FACS buffer. Cells were then analyzed on a FACSCANTO™ flow cytometer. Data analysis was performed using […]™ software, developed by BD Biosciences. Cell populations were gated using forward vs. side scatter and histograms of fluorescent intensities were generated.

Human HER3 receptor [14] = molecular target: T2, Human HER3 receptor; assay: cell-based or functional assay; remark: listed apart in the source
[15] = molecular target: T5, Human HER3 ECD domain III; assay: BIACORE 2000 SPR, mAb captured, HER3 protein as analyte, 25 C
Protocol: (§3) Mouse monoclonal antibodies were analysed using rabbit anti-mouse (RAM) IgG (GE Healthcare BR-1008-38) covalently coupled to a BIACORE™ CM5 chip (GE HEalthcare BR-1000-14) by primary amine chemistry (NHS/EDC activated) (GE Healthcare amine coupling kit BR-1000-50). Chimeric and humanized competitor monoclonal antibodies were analyzed using anti-human, Fc specific monoclonal (GE Healthcare BR-1008-39) similarly coupled. Each chip was also prepared with a reference surface to which no capture reagent antibody is coupled. Sensorgrams for cycles run with differing analyte concentrations are acquired for kinetic analysis. A cycle consists of capturing the monoclonal on the surface, a short stabilization period with flowing run buffer followed by binding of a defined concentration of analyte (ECD or sub-domain protein). Injection of analyte for surface binding (3-4 minutes) yields the association part of curve. This is followed by buffer only flow (3-4 minutes) which allows recording of dissociation data.
(§4) The general method for affinity analysis is as follows. First, chips were prepared and tested for reasonance units (RU) captured for several monoclonal antibody concentrations. Kinetic cycles were then run in which monoclonal antibody was captured to a level of approximately 100RU, analyte protein was allowed to bind then dissociate and the surface was regenerated to remove all but covalently coupled protein. RAM chips were regenerated with capture kit supplied 100 mM glycine pH1.7 and anti-human chips with capture kit supplied 3M MgCl₂. […] Several buffer cycles were run prior to analyte protein to ensure cycle consistency and in some experiments a buffer cycle is used a “double reference[.]” Analytes used were human full length HER3 extra cellular domain (ECD), separate sub-domains of the extracellular portion of human HER3 (D1, D2, D3, D4), or combination HER3 domain proteins (D1-2 and D2-3).

[16] = molecular target: T1, Full-length human HER3 extracellular …; assay: as above
Protocol: as §3, §4

[17] = molecular target: T7, Human HER3 ECD domain 2-3 protein (human, UniProt P21860 184-495); assay: as above
T7 construct: also called D2-3; sub-domains 2-3
T7 sequence (P21860 184-495): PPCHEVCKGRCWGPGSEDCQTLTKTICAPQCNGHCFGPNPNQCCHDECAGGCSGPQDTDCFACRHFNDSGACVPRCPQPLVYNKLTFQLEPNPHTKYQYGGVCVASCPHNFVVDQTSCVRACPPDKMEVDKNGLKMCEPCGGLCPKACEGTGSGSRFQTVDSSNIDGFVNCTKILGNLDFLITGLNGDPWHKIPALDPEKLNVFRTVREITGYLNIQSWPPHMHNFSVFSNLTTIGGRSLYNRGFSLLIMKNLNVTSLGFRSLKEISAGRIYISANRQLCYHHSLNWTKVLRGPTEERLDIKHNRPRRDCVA
Protocol: as §3, §4

| Binder | Phospho-AKT ELISA IC50, heregulin induced, BxPC3 cells (Human HER3 receptor [2]) [µg/mL] | Phospho-HER3 ELISA IC50, heregulin induced, BxPC3 cells (Human HER3 receptor [3]) [µg/mL] | Phospho-HER3 ELISA IC50, heregulin induced, CHL-1 cells (Human HER3 receptor [3]) [µg/mL] | Phospho-HER3 ELISA IC50, heregulin induced, N87 cells (Human HER3 receptor [3]) [µg/mL] | Phospho-HER3 ELISA IC50, heregulin induced, SK-BR-3 cells (Human HER3 receptor [3]) [µg/mL] | binding result (Human HER3 ECD domain II [4]) | Kd [6] [nM] | koff [6] [s⁻¹] | kon [6] [M⁻¹ s⁻¹] | other results |
| --- | --- | --- | --- | --- | --- | --- | --- | --- | --- | --- |
| B1 | 0.0228 | 0.0056 | 0.0282 | 0.0175 | 0.0034 | no binding (tested: 10 ug/ml) | 2.01 | 0.00223 | 1.11e+06 | EC50 (read off the curve) [1]: ~0.03 µg/mL; Kd [5]: 3.37 nM; koff [5]: 0.0011 s⁻¹; kon [5]: 326000 M⁻¹ s⁻¹ |
| B2 | 0.0244 | 0.0116 | 0.0365 | 0.0218 | 0.0036 |  | 4.5 | 0.00184 | 410000 | EC50 (read off the curve) [7]: ~0.04 µg/mL; binding result (Human HER3 ECD domain II [8]): no binding (tested: 10 ug/ml) |
| B3 | 0.0108 | 0.0026 | 0.0311 | 0.0094 | 0.0025 | no binding (tested: 10 ug/ml) | 2.06 | 0.00233 | 1.13e+06 | IC50 of heregulin induced phospho-AKT formation, BxPC3 cells (Human HER3 receptor [9]): 0.0026 µg/mL |
| B4 | 0.0151 | 0.0068 | 0.0406 | 0.0204 | 0.0032 | no binding (tested: 10 ug/ml) |  |  |  | Phospho-HER3 … IC50, heregulin induced, CHO EGFR + HER3 (Human HER3 receptor [10]): 0.0435 µg/mL; Phospho-HER3 … IC50, heregulin induced, CHO HER4 + HER3 (Human HER3 receptor [10]): 0.13 µg/mL; Kd [11]: 0.39 nM; Kd [12]: ~1 nM; Phospho-HER3 ELISA IC50, heregulin induced, BT-474 cells (Human HER3 receptor [3]): 0.0223 µg/mL; Phospho-HER3 ELISA IC50, heregulin induced, MCF7 cells (Human HER3 receptor [3]): 0.0104 µg/mL; binding result [13]: binds; Phospho-HER3 ELISA IC50, betacellulin induced, SK-BR-3 cells (Human HER3 receptor [14]): 0.0036 µg/mL; Phospho-HER3 ELISA IC50, epidermal growth factor induced, SK-BR-3 cells (Human HER3 receptor [14]): 0.003 µg/mL; Phospho-HER3 ELISA IC50, heregulin induced, SK-BR-3 cells (Human HER3 receptor [14]): 0.0032 µg/mL; Kd [15]: 0.38 nM; kon [15]: 2.54e+06 M⁻¹ s⁻¹; Kd [16]: 0.82 nM; kon [16]: 355000 M⁻¹ s⁻¹; Kd [17]: 0.47 nM; kon [17]: 893000 M⁻¹ s⁻¹ |
